Measured values reported in the supplement of paper PMC10724198.
± gives the standard deviation of the averaged measurements.

Tested on: Saccharomyces cerevisiae
Assay: protein stability index of tFT-peptide fusion (C-terminal peptide) (PSI (0-1 scale)); higher = more stable (slower turnover)
Details: genetic background: wild type; temperature: 30 C
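Further: PSI is a weighted mean of sequencing reads over stability bins, variants kept only with over 10 reads, mCherry proximal and sfGFP distal, peptide attached via GGGS linker.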

Sequence	protein stability index
PLSPPLLPPTTL	0.706 ± 0.086
PLSPPLPRPPPL	0.649 ± 0.11
PLSPPPVNIPPT	0.733 ± 0.039
PLSPSFPPLSPP	0.78 ± 0.12
PLSRVEGRVPAI	0.6663 ± 0.0039
PLSSPFPPSHPL	0.763 ± 0.029
PLSVPHQPLCPV	0.686 ± 0.028
PLSVPPMSSLLP	0.7202 ± 0.0068
PLTFARLPPPTL	0.678 ± 0.021
PLTSIDTDPPHI	0.723 ± 0.022
PLWRPLALSHVS	0.67 ± 0.012
PLYRPCPGSRRA	0.745 ± 0.0097
PMIENQQIDKTN	0.649 ± 0.0095
PMMTKDEFNNRM	0.702 ± 0.015
PMRAALIIFLVR	0.5 ± 0.1
PMVETKVGGIAN	0.705 ± 0.043
PMYKYKTSQKDL	0.6567 ± 0.0057
PNFSLPSLPHFP	0.747 ± 0.017
PNPPPPRPTPTP	0.6688 ± 0.0049
PNVHMRVFELFM	0.72 ± 0.054
PPALLRLTSSAR	0.702 ± 0.026
PPALPPVPPYPL	0.673 ± 0.073
PPAPARFPFLPA	0.6696 ± 0.001

Sequence	protein stability index
PPAPPEPRIVRR	0.684 ± 0.076
PPAPPFPAPPPR	0.628 ± 0.028
PPAPPHHPPPSS	0.679 ± 0.036
PPAPPPLPLPLF	0.72 ± 0.0079
PPARPDCGIRTP	0.672 ± 0.026
PPASLFFPPLSP	0.756 ± 0.13
PPASRPPPPTFL	0.699 ± 0.047
PPCPGPLPPPPP	0.6663 ± 0.0025
PPCPSSPHARPA	0.69824 ± 0.00052
PPCRRGRTHGVY	0.685 ± 0.024
PPDLPVPRPSFR	0.571
PPDPPLHPPPSS	0.733 ± 0.13
PPEPVRHTSGLS	0.807 ± 0.059
PPFLDLSLPHIC	0.589 ± 0.016
PPFPPPPRPADH	0.741 ± 0.023
PPFTPLPPSVPP	0.686 ± 0.03
PPFTPLSCLPPP	0.708 ± 0.038
PPGAPPYPSPPP	0.569 ± 0.092
PPGCPCPASTGS	0.6916 ± 0.004
PPGPGRAPVRPA	0.623 ± 0.033
PPGPLPTPPYPP	0.545 ± 0.035
PPGPPLPRPRRP	0.694 ± 0.043
PPGQPPARSSPV	0.706 ± 0.013

Sequence	protein stability index
PPGYPLCLPLGF	0.7018 ± 0.0035
PPHAPLPPPLAL	0.7219 ± 0.0072
PPHAPPPPPHVP	0.713 ± 0.039
PPHLIPTLLSPP	0.721 ± 0.02
PPHLPPPRPKPP	0.592 ± 0.028
PPHQPRTPNSPP	0.68 ± 0.034
PPHRPPTRPRPR	0.64 ± 0.0094
PPHSSPPPPPPS	0.715 ± 0.028
PPHSTPPTGRPG	0.753 ± 0.014
PPIALTPRTPAP	0.747 ± 0.097
PPILHPPPDIPG	0.701 ± 0.042
PPISVIRKPTVL	0.667 ± 0.066
PPLARLASPSRL	0.7006 ± 0.0036
PPLARPPLPAPF	0.6998 ± 0.0022
PPLGITHPSFPS	0.787 ± 0.025
PPLGMPLYHPRP	0.7426 ± 0.0021
PPLGPTSARALA	0.619 ± 0.014
PPLLDLATYSSS	0.697 ± 0.061
PPLLPPLPFPPP	0.74 ± 0.076
PPLLTPPSTLFS	0.661 ± 0.022
PPLPFSRSPSSL	0.69 ± 0.019
PPLPLPLPPPTP	0.767 ± 0.088
PPLPPLPLAPPY	0.6927 ± 0.005

Sequence	protein stability index
PPLPPLPPLSVS	0.675 ± 0.029
PPLPPPPASPPP	0.589 ± 0.045
PPLPPPPPLLPP	0.6764 ± 0.0065
PPLPPPSSPLFP	0.714 ± 0.087
PPLPPRPTPPPR	0.711 ± 0.04
PPLPSPPPPSSP	0.7157 ± 0.0022
PPLRFLSVSSSP	0.6741 ± 0.003
PPLRLASSPPPV	0.736 ± 0.062
PPLSCSPPLAPL	0.695 ± 0.019
PPLSLPSSCPSP	0.652 ± 0.1
PPLSPLSPLAPP	0.712 ± 0.038
PPLTPPPPTPPP	0.635 ± 0.057
PPLTPSPPRSFP	0.651 ± 0.08
PPNLYRGVQGPA	0.682 ± 0.0099
PPNPLPPAFTPP	0.715 ± 0.027
PPNPPPGPTVPF	0.768 ± 0.084
PPPALEPSPKEL	0.781 ± 0.057
PPPAPPPAIPHP	0.687 ± 0.0073
PPPAPPTFPLRS	0.684 ± 0.087
PPPAPRRTRRPS	0.698 ± 0.047
PPPARLSLPPPD	0.694 ± 0.007
PPPASRPPHPTL	0.746 ± 0.026
PPPFLTPPPPHS	0.709 ± 0.026

Sequence	protein stability index
PPPFPLLPRYGF	0.657 ± 0.066
PPPFPPAPRHPP	0.614 ± 0.013
PPPFPPPTLPPP	0.736 ± 0.039
PPPFSPLPPGPP	0.699 ± 0.0077
PPPGPDGVASNF	0.685 ± 0.053
PPPHPPRRLLPP	0.69 ± 0.065
PPPHPRPSPPSP	0.702 ± 0.048
PPPHRPWSPVPP	0.7158 ± 0.0034
PPPISTLSSSPS	0.582 ± 0.059
PPPKAPHSSPNL	0.675 ± 0.072
PPPLASRLLSFL	0.713 ± 0.022
PPPLHPRYDPPA	0.685 ± 0.025
PPPLLAPHPPPP	0.697 ± 0.01
PPPLLPFPPIPR	0.697 ± 0.033
PPPLPFPPSPPL	0.681 ± 0.063
PPPLPLSTPPPL	0.671 ± 0.014
PPPLPPPPPLPP	0.589 ± 0.038
PPPLPPPPPPSP	0.782 ± 0.083
PPPLPPSSPTYS	0.646 ± 0.11
PPPLPRRPASPL	0.652 ± 0.014
PPPLPSPPAFRP	0.635 ± 0.045
PPPLPTPSLPPP	0.70185 ± 0.00011
PPPLPYKAPRIL	0.7068 ± 0.0036

Sequence	protein stability index
PPPLRAPPLSLP	0.62 ± 0.0068
PPPPAPYRPPSC	0.682 ± 0.0054
PPPPATRPSPCY	0.706 ± 0.048
PPPPDHPRSSPV	0.688 ± 0.037
PPPPDPWTSPRP	0.734 ± 0.027
PPPPFSPPPPSA	0.7 ± 0.04
PPPPLLSPPSPP	0.714 ± 0.015
PPPPLPPIRPYP	0.719 ± 0.016
PPPPLPPQPPPP	0.654 ± 0.0073
PPPPLPPTPPPL	0.673 ± 0.025
PPPPPAPPPQPS	0.699 ± 0.011
PPPPPFSPLFLP	0.698 ± 0.12
PPPPPHSSPFRS	0.694 ± 0.01
PPPPPHTPPPYP	0.766 ± 0.05
PPPPPIPPPLVP	0.658 ± 0.012
PPPPPLPPLPTP	0.693 ± 0.022
PPPPPLPPPSPP	0.598 ± 0.036
PPPPPLRVPPPP	0.6753 ± 0.004
PPPPPPAFPPST	0.716 ± 0.027
PPPPPPLITPPL	0.666 ± 0.052
PPPPPPLLPSPL	0.705 ± 0.069
PPPPPPLPPPLP	0.704 ± 0.056
PPPPPPLPPSPL	0.634 ± 0.1

Sequence	protein stability index
PPPPPPPASLLP	0.755 ± 0.056
PPPPPPPFRPPT	0.651 ± 0.017
PPPPPPPLPLPP	0.64 ± 0.011
PPPPPPPLPRSP	0.721 ± 0.039
PPPPPPPPAPFP	0.687 ± 0.056
PPPPPPPPPLPR	0.657 ± 0.039
PPPPPPPPPQPS	0.67 ± 0.08
PPPPPPPPSPSP	0.742 ± 0.074
PPPPPPPTPIHP	0.72 ± 0.01
PPPPPPRPFPPP	0.66 ± 0.085
PPPPPPSVLSPP	0.722 ± 0.061
PPPPPPTPPPCL	0.694 ± 0.057
PPPPPRFSPHPP	0.695 ± 0.013
PPPPPRLPPRPP	0.6152 ± 0.0052
PPPPPRPPLSPP	0.725 ± 0.03
PPPPPSLACPPP	0.688 ± 0.037
PPPPPSPPLSPI	0.728 ± 0.063
PPPPRAISPLLP	0.666 ± 0.031
PPPPRPLKLFPP	0.588 ± 0.014
PPPPRPLPPAPP	0.63 ± 0.075
PPPPRPPHLSPP	0.7006 ± 0.0067
PPPPRPPRPYSV	0.767 ± 0.27
